This is an account of results in paper PMC5476288 (PLoS Pathogens, 2017).

The experiment deals with T1, Flag-IRF3 (human, UniProt Q14653 1-427).
T1 construct: not shown: Flag, N-terminal, kept
T1 sequence (looked up): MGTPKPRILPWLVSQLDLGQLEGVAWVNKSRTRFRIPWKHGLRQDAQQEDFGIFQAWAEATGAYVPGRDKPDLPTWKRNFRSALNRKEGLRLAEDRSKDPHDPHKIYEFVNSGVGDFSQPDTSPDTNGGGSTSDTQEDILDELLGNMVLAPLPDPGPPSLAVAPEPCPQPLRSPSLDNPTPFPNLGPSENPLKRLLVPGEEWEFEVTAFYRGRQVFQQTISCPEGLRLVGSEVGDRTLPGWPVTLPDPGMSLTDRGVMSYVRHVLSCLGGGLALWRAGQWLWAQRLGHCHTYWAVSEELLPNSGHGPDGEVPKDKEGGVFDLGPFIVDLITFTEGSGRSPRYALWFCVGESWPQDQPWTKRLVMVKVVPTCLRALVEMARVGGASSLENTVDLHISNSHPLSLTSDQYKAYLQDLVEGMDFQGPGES
As to the kind of experiment: pull-down; lysates of 293T cells with ectopic Flag-TBK1 or Flag-IRF3 incubated with GST or the GST-ERRα fusion protein. As to conditions: one partner purified.

B1: GST-ERRα fusion protein (natural protein, UniProt P11474 1-423, looked up)
chain: MSSQVVGIEPLYIKAEPASPDSPKGSSETETEPPVALAPGPAPTRCLPGHKEEEDGEGAGPGEQGGGKLVLSSLPKRLCLVCGDVASGYHYGVASCEACKAFFKRTIQGSIEYSCPASNECEITKRRRKACQACRFTKCLRVGMLKEGVRLDRVRGGRQKYKRRPEVDPLPFPGPFPAGPLAVAGGPRKTAAPVNALVSHLLVVEPEKLYAMPDPAGPDGHLPAVATLCDLFDREIVVTISWAKSIPGFSSLSLSDQMSVLQSVWMEVLVLGVAQRSLPLQDELAFAEDLVLDEEGARAAGLGELGAALLQLVRRLQALRLEREEYVLLKALALANSDSVHIEDAEAVEQLREALHEALLEYEAGRAGPGGGAERRRAGRLLLTLPLLRQTAGKVLAHFYGVKLEGKVPMHKLFLEMLEAMMD
notes: also called estrogen-related receptor α
Turning to B1, the binding result is “binds”.
